These results are taken from PMC10907165, “Discovery and structural characterization of the D-box, a conserved TonB motif that couples an inner-membrane motor to outer-membrane transport” (The Journal of Biological Chemistry, 2024).

The labels stand for the following.
B1: AF488-labeled D-box peptide (QPISVTMVTPADC) (peptide)
peptide: QPISVTMVTPADC(AF488 maleimide)
notes: TonB, E. coli, residues 43-54 (D-box peptide); cysteine added at the C-terminus for labelling with the maleimide dye; not a TonB residue; also called fluorescently labeled D-box peptide; fluorophore-labeled D-box peptide; source: synthetic peptide (Biomatik Corporation), labelled with AF488-maleimide, purified on a C18 column
B2: D-box peptide (residues 43 to 54 of E. coli TonB) (peptide)
peptide: QPISVTMVTPAD
notes: TonB, E. coli, residues 43-54, holds the D-box motif; The description of the crystal structure numbers the peptide Gln-55 to Thr-63, that is 12 higher than the TonB numbers; also called TonB D-box peptide; source: synthetic peptide (VWR Scientific)
B3: ExbD periplasmic domain (E. coli ExbD residues 59-141) (domain or fragment)
chain: GRPEKPVYLSVKADNSMFIGNDPVTDETMITALNALTEGKKDTTIFFRADKTVDYETLMKVMDTLHQAGYLKIGLVGEETAKAK
notes: single glycine residue left upstream of Arg-59 after proteolytic removal of the SUMO tag; ExbD, E. coli, periplasmic domain, residues 59-141 (begins at Arg-59); codon-optimised synthetic gene in pETHSUL; the methods and legends say 59-141; Two copies of this domain hold one D-box peptide in the crystals and by ITC; also called ExbD_(59-141); ExbD C-terminal periplasmic domain; source: E. coli …

Ends that are not written are not given here.

Series [1] addresses B3. Kind of series: fluorescence polarisation; fluorescence anisotropy; 100 nM AF488-labeled peptide, ExbD protein varied; 40 mM Tris pH 8.0, 150 mM NaCl; room temperature. Particulars: both partners purified.
The target of series [2] is B3. Put plainly: ITC; D-box peptide (1 mM) injected into 100 uM ExbD protein at 288 K; 10 mM MES pH 5.3, 60 mM NaCl; two-state binding model. Conditions: both partners purified.
Series [3] concerns the molecule itself. Kind of series: crystal structure; ExbD periplasmic domain mixed with the D-box peptide; crystals from ammonium sulfate; orthorhombic and tetragonal forms, about 1.4 A.

The molecule B1 registered a Kd in series [1] of 45 ± 9 µM.
Regarding B2, in series [2], the dissociation constant Kd was determined as 19 ± 1 µM and the “stoichiometry N” value came out at 0.5 D-box peptide per ExbD.
Regarding B3, in series [3], the binding result is “binds”.
